Assay results as given in article PMC5071567.

Assays:
[1] = molecular target: transthyretin (UniProt P02766); settings: cited from earlier work
[2] = molecular target: megalin (LRP-2) (mouse (endogenous in cultured hippocampal neurons)) (UniProt A2ARV4)
megalin (LRP-2) (mouse (endogenous in cultured hippocampal neurons)), sequence (A2ARV4 26-4660): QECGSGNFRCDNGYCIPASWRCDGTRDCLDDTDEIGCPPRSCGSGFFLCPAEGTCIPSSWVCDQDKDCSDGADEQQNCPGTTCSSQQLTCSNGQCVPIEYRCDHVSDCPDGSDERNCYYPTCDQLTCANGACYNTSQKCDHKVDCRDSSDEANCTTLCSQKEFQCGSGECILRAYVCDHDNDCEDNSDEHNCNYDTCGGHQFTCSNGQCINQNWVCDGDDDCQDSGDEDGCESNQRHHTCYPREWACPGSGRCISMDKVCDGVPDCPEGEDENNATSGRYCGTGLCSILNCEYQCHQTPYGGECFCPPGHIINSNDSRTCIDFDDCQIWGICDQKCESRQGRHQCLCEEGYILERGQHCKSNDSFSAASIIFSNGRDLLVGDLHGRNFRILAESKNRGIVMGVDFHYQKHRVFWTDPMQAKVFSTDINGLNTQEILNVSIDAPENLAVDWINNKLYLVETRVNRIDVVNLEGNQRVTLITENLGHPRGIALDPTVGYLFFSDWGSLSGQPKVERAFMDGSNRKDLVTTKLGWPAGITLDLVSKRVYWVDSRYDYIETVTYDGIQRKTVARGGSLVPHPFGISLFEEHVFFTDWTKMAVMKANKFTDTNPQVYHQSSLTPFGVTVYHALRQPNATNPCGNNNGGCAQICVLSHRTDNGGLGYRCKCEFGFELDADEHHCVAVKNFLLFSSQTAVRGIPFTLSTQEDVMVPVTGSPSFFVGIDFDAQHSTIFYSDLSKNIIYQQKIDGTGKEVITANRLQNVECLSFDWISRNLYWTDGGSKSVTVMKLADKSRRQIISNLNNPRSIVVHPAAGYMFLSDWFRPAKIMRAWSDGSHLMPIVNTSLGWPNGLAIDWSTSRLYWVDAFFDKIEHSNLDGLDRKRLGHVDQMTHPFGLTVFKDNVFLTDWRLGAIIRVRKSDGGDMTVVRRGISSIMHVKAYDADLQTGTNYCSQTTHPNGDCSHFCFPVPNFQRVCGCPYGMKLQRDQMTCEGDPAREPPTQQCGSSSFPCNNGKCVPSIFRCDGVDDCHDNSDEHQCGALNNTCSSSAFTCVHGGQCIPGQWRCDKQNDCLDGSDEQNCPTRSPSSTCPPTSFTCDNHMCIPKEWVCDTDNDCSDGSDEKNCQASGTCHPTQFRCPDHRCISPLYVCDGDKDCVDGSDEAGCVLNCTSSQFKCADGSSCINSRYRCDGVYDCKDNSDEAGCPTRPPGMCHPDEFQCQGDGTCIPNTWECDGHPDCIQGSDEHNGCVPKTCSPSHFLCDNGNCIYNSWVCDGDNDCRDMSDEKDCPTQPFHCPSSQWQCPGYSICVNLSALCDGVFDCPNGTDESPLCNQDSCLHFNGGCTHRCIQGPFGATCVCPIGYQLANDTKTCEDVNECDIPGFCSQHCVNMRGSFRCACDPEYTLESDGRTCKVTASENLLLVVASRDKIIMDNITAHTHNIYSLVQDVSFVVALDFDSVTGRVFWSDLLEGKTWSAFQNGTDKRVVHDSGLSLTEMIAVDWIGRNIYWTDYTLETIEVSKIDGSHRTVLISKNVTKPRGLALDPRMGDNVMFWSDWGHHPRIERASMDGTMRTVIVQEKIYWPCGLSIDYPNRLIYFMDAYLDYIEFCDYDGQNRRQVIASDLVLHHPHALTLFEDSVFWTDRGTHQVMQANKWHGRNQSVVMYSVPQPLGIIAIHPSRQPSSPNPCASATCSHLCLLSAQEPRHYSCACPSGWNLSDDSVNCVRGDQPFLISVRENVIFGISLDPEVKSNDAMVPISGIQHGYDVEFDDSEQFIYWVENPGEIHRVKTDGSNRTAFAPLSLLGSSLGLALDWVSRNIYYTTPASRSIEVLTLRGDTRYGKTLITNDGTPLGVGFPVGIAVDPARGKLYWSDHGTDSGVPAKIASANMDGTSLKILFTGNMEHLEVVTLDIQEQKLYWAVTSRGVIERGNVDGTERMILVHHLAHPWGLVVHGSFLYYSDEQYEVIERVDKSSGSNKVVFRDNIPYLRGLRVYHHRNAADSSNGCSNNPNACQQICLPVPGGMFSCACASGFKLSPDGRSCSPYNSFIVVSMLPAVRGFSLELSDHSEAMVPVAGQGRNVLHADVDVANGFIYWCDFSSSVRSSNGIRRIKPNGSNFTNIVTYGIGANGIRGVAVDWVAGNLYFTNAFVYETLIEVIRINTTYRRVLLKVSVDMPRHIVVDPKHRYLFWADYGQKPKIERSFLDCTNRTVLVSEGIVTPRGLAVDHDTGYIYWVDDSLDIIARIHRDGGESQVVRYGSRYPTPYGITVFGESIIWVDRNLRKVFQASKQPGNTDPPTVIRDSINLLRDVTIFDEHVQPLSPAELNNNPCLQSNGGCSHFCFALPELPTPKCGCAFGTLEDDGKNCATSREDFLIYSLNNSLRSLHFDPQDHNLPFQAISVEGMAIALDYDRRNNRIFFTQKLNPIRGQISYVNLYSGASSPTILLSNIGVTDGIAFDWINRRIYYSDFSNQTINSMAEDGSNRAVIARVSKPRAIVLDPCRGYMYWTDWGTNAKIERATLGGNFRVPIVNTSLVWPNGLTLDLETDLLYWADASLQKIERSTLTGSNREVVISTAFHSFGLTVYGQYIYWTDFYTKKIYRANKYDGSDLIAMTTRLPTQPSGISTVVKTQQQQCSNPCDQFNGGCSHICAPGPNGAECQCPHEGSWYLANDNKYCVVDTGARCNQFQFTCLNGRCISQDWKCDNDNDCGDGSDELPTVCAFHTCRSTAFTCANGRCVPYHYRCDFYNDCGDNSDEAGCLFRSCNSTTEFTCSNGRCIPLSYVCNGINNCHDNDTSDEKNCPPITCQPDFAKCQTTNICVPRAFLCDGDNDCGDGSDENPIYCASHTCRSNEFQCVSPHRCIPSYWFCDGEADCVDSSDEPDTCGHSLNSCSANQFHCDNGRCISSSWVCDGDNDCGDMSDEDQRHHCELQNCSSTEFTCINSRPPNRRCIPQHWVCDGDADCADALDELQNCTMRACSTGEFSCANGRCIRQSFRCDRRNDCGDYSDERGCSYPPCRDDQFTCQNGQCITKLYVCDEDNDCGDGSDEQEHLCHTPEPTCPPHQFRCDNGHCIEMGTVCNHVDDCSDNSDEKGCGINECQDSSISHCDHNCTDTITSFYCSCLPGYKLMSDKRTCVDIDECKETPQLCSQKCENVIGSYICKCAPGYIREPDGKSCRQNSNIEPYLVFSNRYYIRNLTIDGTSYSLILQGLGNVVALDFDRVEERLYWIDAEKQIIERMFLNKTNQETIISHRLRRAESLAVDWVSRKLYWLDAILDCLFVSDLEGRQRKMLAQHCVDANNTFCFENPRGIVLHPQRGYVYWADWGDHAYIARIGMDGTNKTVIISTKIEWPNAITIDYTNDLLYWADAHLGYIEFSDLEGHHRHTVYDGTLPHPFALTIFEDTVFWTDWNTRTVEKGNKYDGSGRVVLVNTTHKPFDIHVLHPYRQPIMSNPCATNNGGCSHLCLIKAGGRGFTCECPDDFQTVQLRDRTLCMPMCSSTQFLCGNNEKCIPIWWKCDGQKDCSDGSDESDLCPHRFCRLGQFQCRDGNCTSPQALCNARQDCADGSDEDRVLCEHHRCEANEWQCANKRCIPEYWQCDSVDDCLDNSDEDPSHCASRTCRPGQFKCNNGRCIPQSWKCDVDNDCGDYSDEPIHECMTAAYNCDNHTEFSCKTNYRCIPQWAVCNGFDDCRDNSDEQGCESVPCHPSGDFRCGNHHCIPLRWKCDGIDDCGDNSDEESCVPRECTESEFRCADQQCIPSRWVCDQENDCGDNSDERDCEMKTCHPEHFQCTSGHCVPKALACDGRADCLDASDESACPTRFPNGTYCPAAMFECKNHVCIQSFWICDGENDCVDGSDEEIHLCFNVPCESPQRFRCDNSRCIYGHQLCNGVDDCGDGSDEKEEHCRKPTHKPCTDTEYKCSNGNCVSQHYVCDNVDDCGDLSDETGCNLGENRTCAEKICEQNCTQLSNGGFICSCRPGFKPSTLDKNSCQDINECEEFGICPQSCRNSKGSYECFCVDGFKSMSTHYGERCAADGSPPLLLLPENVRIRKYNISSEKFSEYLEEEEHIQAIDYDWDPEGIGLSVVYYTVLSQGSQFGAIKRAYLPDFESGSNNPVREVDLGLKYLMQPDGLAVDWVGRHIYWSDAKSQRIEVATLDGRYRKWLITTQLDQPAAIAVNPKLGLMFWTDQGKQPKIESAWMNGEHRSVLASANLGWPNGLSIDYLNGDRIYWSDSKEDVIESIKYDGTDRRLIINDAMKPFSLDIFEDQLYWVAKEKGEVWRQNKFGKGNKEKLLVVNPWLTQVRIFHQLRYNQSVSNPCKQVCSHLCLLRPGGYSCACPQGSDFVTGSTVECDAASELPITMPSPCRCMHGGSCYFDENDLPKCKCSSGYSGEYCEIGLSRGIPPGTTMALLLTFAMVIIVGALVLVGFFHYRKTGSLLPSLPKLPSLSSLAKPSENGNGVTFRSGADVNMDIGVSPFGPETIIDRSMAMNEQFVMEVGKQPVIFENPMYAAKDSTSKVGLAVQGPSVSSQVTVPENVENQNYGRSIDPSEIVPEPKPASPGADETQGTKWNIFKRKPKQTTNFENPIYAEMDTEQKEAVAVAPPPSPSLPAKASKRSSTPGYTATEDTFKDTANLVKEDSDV

Substance | Kd [1] | activation of Src (phospho-Tyr416) by western blot in TTR KO cultured hippocampal neurons, 30 min after mouse TTR (55 μg/ml) [2] | rise of CREB phosphorylation (Ser133) by western blot in TTR KO cultured hippocampal neurons stimulated with mouse TTR (55 μg/ml) [2] | rise of phosphorylated Akt (Ser473) by western blot in TTR KO cultured hippocampal neurons, 30 min after mouse TTR (55 μg/ml) [2] | rise of phosphorylated ERK by western blot in TTR KO cultured hippocampal neurons, 30 min after mouse TTR (55 μg/ml) [2]
megalin (from UniProt P98164) | 0.5 µM |  |  |  | 
recombinant mouse transthyretin (from UniProt P07309 21-147) (ligand) |  | 30 to 50% | 20% | 23% | 35%
